{
  "source": "patent US20020192216A1",
  "about": "“Therapeutic use” (priority 1999, published 2002)",
  "origin": "cited, not measured here",
  "molecules": {"B1": {"name": "HIP: membrane glycoprotein that binds Hedgehog proteins and attenuates Hedgehog signalling; GenBank AF116865 (protein, UniProt Q7TN16 18-700, looked up)", "Hedgehog-interacting protein": "FFEGDAKFGERNEGSGARRRRCLNGNPPKRLKRRDRRVMSQLELLSGGEILCGGFYPRVSCCLQSDSPGLGRLENKIFSATNNSECSRLLEEIQCAPCSPHSQSLFYTPERDVLDGDLALPLLCKDYCKEFFYTCRGHIPGLLQTTADEFCFYYARKDAGLCFPDFPRKQVRGPASNYLGQMEDYEKVGGISRKHKHNCLCVQEVMSGLRQPVSAVHSGDGSHRLFILEKEGYVKILTPEGELFKEPYLDIHKLVQSGIKGGDERGLLSLAFHPNYKKNGKLYVSYTTNQERWAIGPHDHILRVVEYTVSRKNPHQVDVRTARVFLEVAELHRKHLGGQLLFGPDGFLYIILGDGMITLDDMEEMDGLSDFTGSVLRLDVDTDMCNVPYSIPRSNPHFNSTNQPPEVFAHGLHDPGRCAVDRHPTDININLTILCSDSNGKNRSSARILQIIKGRDYESEPSLLEFKPFSNGPLVGGFVYRGCQSERLYGSYVFGDRNGNFLTLQQSPVTKQWQEKPLCLGASSSCRGYFSGHILGFGEDELGEVYILSSSKSMTQTHNGKLYKIVDPKRPLMPEECRVTVQPAQPLTSDCSRLCRNGYYTPTGKCCCSPGWEGDFCRIAKCEPACRHGGVCVRPNKCLCKKGYLGPQCEQVDRNVRRVTRAGILDQIIDMTSYLLDLTSYIV"}},
  "system": "all three mammalian Hedgehog proteins",
  "conditions": "compared with Ptc",
  "data": [
    {"molecule": "B1", "values": [
      {"measurement": "affinity for Hedgehog proteins", "value": "comparable to that of Ptc"}
    ]}
  ]
}
